Laboratory results taken from US20050215509.

T1: recombinant SCCA-1 with a polyhistidine tag (6x His), P29508
T1 chain: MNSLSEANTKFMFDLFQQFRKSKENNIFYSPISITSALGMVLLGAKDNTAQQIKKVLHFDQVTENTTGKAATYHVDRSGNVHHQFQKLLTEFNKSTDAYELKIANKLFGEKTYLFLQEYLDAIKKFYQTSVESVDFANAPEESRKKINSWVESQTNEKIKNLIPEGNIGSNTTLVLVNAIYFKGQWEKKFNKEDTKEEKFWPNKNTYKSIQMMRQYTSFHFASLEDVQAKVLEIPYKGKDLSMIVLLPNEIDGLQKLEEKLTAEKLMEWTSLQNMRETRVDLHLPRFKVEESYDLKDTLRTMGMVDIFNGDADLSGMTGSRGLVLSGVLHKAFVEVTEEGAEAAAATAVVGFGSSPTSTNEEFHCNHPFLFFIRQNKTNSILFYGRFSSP


Target: T1, recombinant SCCA-1 with a polyhistidine …

Protein	amount of phosphorylated c-Jun (in vitro pull-down JNK kinase assay on c-Jun fused protein beads, western blot with anti-phosphorylated c-Jun antibody)
active recombinant phosphorylated JNK-2 (Cell Signaling) (protein) MSDSKCDSQFYSVQVADSTFTVLKRYQQLKPIGSGAQGIVCAAFDTVLGINVAVKKLSRPFQNQTHAKRAYRELVLLKCVNHKNIISLLNVFTPQKTLEEFQDVYLVMELMDANLCQVIHMELDHERMSYLLYQMLCGIKHLHSAGIIHRDLKPSNIVVKSDCTLKILDFGLARTACTNFMMTPYVVTRYYRAPEVILGMGYKENVDIWSVGCIMGELVKGCVIFQGTDHIDQWNKVIEQLGTPSAEFMKKLQPTVRNYVENRPKYPGIKFEELFPDWIFPSESERDKIKTSQARDLLSKMLVIDPDKRISVDEALRHPYITVWYDPAEAEAPPPQIYDAQLEEREHAIEEWKELIYKEVMDWEERSKNGVVKDQPSDAAVSSNATPSQSSSINDISSMSTEQTLASDTDSSLDASTGPLEGCR	in the case of incubating SCCA-1 with active JNK-2, there was no significant decrease in the amount of phosphorylated c-Jun observed as compared with the control
active recombinant phosphorylated JNK-1 (Cell Signaling) (protein) MSRSKRDNNFYSVEIGDSTFTVLKRYQNLKPIGSGAQGIVCAAYDAILERNVAIKKLSRPFQNQTHAKRAYRELVLMKCVNHKNIIGLLNVFTPQKSLEEFQDVYIVMELMDANLCQVIQMELDHERMSYLLYQMLCGIKHLHSAGIIHRDLKPSNIVVKSDCTLKILDFGLARTAGTSFMMTPYVVTRYYRAPEVILGMGYKENVDLWSVGCIMGEMVCHKILFPGRDYIDQWNKVIEQLGTPCPEFMKKLQPTVRTYVENRPKYAGYSFEKLFPDVLFPADSEHNKLKASQARDLLSKMLVIDASKRISVDEALQHPYINVWYDPSEAEAPPPKIPDKQLDEREHTIEEWKELIYKEVMDLEERTKNGVIRGQPSPLAQVQQ	in the case of incubating SCCA-1 with active JNK-1, the amount of phosphorylated c-Jun decreased remarkably as compared with the control not containing SCCA-1
